Laboratory results taken from article doi:10.1101/798769.

Target: NANP 5.5-mer peptide, NP(NANP)5 (Plasmodium falciparum)
Assay: SPR

Q: For “mAb CIS43 (recombinant human IgG1, kappa) (antibody)”, which fold lower affinity (reference not clear: its own NPDP affinity or mAb 4493) is on record?
A: 100 fold
